Data on one substance can be found in patent publication US6326464.

Common to all, as to test: cell_activity
Details in all cases: H358 cells, 50 ng plasmid

Series [1] has as its system V-336 (VP16-75-336-lz) (Homo sapiens / herpes simplex virus chimera).
Series [2] deals with wild-type p53 (Homo sapiens) (UniProt P04637).
For series [3], the system named is V-325 (VP16-75-325-lz) (Homo sapiens / herpes simplex virus chimera).

Chain of wild-type p53 (Homo sapiens) (P04637 whole entry): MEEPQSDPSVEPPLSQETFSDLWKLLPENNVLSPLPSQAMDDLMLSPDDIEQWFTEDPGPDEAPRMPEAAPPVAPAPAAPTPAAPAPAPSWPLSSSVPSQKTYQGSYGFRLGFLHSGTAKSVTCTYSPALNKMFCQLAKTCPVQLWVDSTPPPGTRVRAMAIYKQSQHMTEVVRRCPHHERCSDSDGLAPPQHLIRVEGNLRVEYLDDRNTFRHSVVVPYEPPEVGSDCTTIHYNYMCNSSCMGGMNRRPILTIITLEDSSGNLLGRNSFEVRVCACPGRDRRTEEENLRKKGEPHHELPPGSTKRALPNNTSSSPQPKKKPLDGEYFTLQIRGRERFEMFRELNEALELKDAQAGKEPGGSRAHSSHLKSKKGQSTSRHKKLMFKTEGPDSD

Take p53RE consensus CAT reporter: the activity (relative CAT activity (vector=1)) is 16 in series [1], 6 in series [2] and 25 in series [3].
